The target in assay [1] is T1, human TMEM106B (human, UniProt Q9NUM4 2-274).
T1 construct: Full-length, on transiently transfected HEK293 cells, or natively expressed on HeLa, U251 and A549 cells; also called huTMEM106B; huTMEM
The assay can be described thus: FACS, HEK293 transfectants. On the technique in general: In flow cytometry, cells or beads pass a laser one at a time.

For assay [2], the target named is T1, human TMEM106B. The assay can be described thus: FACS A549.
The target in assay [3] is T1, human TMEM106B. The assay can be described thus: FACS U251.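 Further: flow cytometry of cells exposed to antibody (purified at 10 µg/mL, or hybridoma supernatant) for 1 h on ice, with propidium iodide-positive dead cells gated out.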
Method: (§1) All cells were cultured in either T75 or T150 flasks. […] The enzyme was quenched by addition of fresh media, and the cells were then distributed into 96-well plates for FACS analysis.
(§2) FACS analysis was performed as follows. Each cell type was aliquoted in 96-well round bottom plates (2x10^5 cells per well), washed once with FACS buffer (PBS + 2% FBS + 1 mM EDTA), and incubated with 50 µL of hybridoma supernatant or purified antibody (10 µg/ml in FACS buffer) on ice for 1 hour. […] Following this secondary incubation, the cells were again washed 2x with ice-cold FACS buffer and resuspended in a final volume of 50 µL of FACS buffer + 0.25 µl/well propidium iodide (Fisher Scientific # BDB556463). Analysis was performed on a FACSCanto system (BD Biosciences) or iQue (Intellicyt), with sort gates drawn to exclude dead (i.e., propidium iodide positive) cells.
(§3) Data is presented as mean fluorescence intensity (MFI).
Assay [4] deals with T2, GST-fusion human TMEM106B truncated (human).
T2 construct: also called GST-TMEM106B-truncated protein; GST-TMEM106B (truncated)
The assay can be described thus: epitope binning, array SPR (Community 3, Bin 5).
Method: Epitope binning of the anti-TMEM106B antibodies was performed by Carterra (Salt Lake City, Nevada, USA) using a pre-mix epitope binning approach.

Assay [5] has as its target T1, human TMEM106B. The assay can be described thus: FACS HEK+huTMEM, 0.01 ug/ml.
For assay [6], the target named is T1, human TMEM106B. The assay can be described thus: FACS A549, 10 ug/ml.
Method: (§4) Purified anti-TMEM106B antibodies were evaluated for their binding affinity to various TMEM106B-expressing cell lines including HEK293 transiently transfected with human/cyno/mouse TMEM106B, as well as HeLa cells and A549 cells. Antibodies tested for this experiment were mouse IgGs purified from hybridoma supernatant. Affinity binding to cells was determined as follows. Briefly, 1x10^5 cells were aliquoted per well in 96-well round bottom plates and incubated with 50 µL of purified anti-TMEM106B antibody at various concentrations (10x dilutions starting at 10 µg/ml) in FACS buffer (PBS + 2% FBS + 1 mM EDTA). […] Sorting was performed on a iQue (Intellicyt), with sort gates drawn to exclude dead (propidium iodide +) cells. Binding data was analyzed using median fluorescent intensity (MFI) and graphed in Prism. Values presented are MFI.
For assay [7], the target named is T1, human TMEM106B. The assay can be described thus: FACS HEK+huTMEM, 10 ug/ml.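 Further: purified mouse IgG antibodies at 10 µg/ml bound to HEK293 cells transiently expressing human TMEM106B, measured by flow cytometry as median fluorescence intensity of propidium iodide negative live cells.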
Method: as §4
Assay [8] concerns the target T3, cynomolgus (cyno) TMEM106B (cynomolgus, UniProt Q9NUM4 2-274 (human entry)).
T3 construct: on transiently transfected HEK293 cells
The assay can be described thus: FACS, HEK293 transfectants.

Assay [9] has as its target T4, mouse TMEM106B (mouse, UniProt Q80X71 2-275).
T4 construct: on transiently transfected HEK293 cells, or natively expressed on mouse Neuro2a cells; also called moTMEM106B; murine TMEM106B
The assay can be described thus: FACS, HEK293 transfectants.

The target in assay [10] is T1, human TMEM106B. The assay can be described thus: FACS, HEK293 transfectants. This is another data set of the same source.
In assay [11] the target is T1, human TMEM106B. The assay can be described thus: FACS HEK+huTMEM, 1.0 ug/ml.
The target in assay [12] is T1, human TMEM106B. The assay can be described thus: FACS HEK+huTMEM, 0.1 ug/ml.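 Further: flow cytometry binding of purified mouse IgG antibodies to HEK293 cells transiently expressing TMEM106B, read as median fluorescence intensity with propidium iodide positive dead cells gated out.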
For assay [13], the target named is T5, GST (Pierce) (UniProt P08515 1-218 = GST, limits assumed).
T5 construct: control for the GST part of the fusion protein; also called GST protein; Glutathione-S-transferase
The assay can be described thus: array SPR, Ab immobilised.

For assay [14], the target named is T4, mouse TMEM106B. The assay can be described thus: FACS Neuro2a.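 Further: flow cytometry of cells stained with antibody or hybridoma supernatant (purified antibody at 10 µg/ml) for 1 h on ice, propidium iodide–positive dead cells gated out.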
In assay [15] the target is T1, human TMEM106B. The assay can be described thus: FACS A549, 1 ug/ml.
Assay [16] deals with T1, human TMEM106B. The assay can be described thus: FACS HeLa.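 Further: flow cytometry of cells incubated with hybridoma supernatant or purified antibody at 10 µg/ml for 1 h on ice, propidium iodide–positive dead cells gated out.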
Method: as §1, §2, §3
The target of assay [17] is T2, GST-fusion human TMEM106B truncated. The assay can be described thus: array SPR, Ab immobilised.
Method: Binding kinetic characterization of the purified antibodies was performed by Carterra using a proprietary array SPR instrument (MX-96) as follows. Briefly, antibodies were prepared by diluting to 5 µg/ml in 10 mM Acetate, pH 4.5 (Carterra), at 150 µL/well and then made an additional dilution at 1:10 from there by titrating 11 µl into 100 µL. […] The chip was activated with 18 mM EDC (Sigma Bioxtra) and 4.5 mM S-NHS (Thermo Fisher) diluted in 100 mM MES, pH 5.5, for 7 minutes, and then antibodies were coupled for 10 minutes at 45 µL/minute. After coupling, the chip was returned to the MX-96 and quenched for 7 minutes using 1 M Ethanolamine pH 8.5 (Carterra).
Printed antibodies were profiled for their ability to bind GST-TMEM106B (truncated) protein (described above). Briefly, GST-TMEM106B (truncated) antigen was diluted to 18 µg/ml (500 nM of 36 kDa fusion protein) by mixing 2.7 µL of 2.0 mg/ml antigen into 298 µL Running buffer (HBS-EP+, Teknova with 1 mg/ml BSA, Sigma), and titrated 50 µl into 200 µl for 5-fold serial dilutions. In addition, binding to GST (Pierce) was assayed under the same conditions to determine the extent of any nonspecific binding of the anti-TMEM106B antibodies to GST portion of the TMEM106B-GST fusion protein. Duplicate measurements for each anti-TMEM106B antibody were taken to ensure reproducibility.
For assay [18] the target is unchanged. The assay can be described thus: array SPR, Ab immobilised. The source holds these as a separate data set.
Assay [19] concerns the target T5, GST (Pierce). The assay can be described thus: ELISA, coated GST. (In an ELISA, binding on a coated surface is turned into a signal by an enzyme label.)
The target of assay [20] is T1, human TMEM106B. The assay can be described thus: FACS titration on cells, apparent.
Method: as §4
Assay [21] addresses T2, GST-fusion human TMEM106B truncated. The assay can be described thus: ELISA, supernatant.
Method: Briefly, 96-well polystyrene plates were coated with 1-10 µg/ml of recombinant GST-TMEM106B-truncated protein or GST (Pierce) in PBS either at 370 Cfor 1-4 hours or overnight at 4 °C. Coated plates were then blocked with 5% BSA for 1-hour, washed 3×150 µL in TBST (Tris-buffered saline + 0.1% Tween20), and then the antibodies were added at various dilutions (100-1000x) in PBS. After 1-hour incubation (room temperature, with shaking), the plates were washed 3x150 µL in TBST. […] After a final set of washes (3×150µL in TBST), 100 µL of peroxidase substrate was added for 1 minute; the reaction was then quenched with 2N sulfuric acid (100 µL).

“And” between values parts separate entries of the source, which are not always exact repeats. Equal values may be shown once. Read-outs that look alike come from different tables or passages of the source. Where only a bound is given, the exact number is not on record here.
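Wherever fold over negative controls is given: hybridoma supernatants incubated 30 min on ice with human TMEM106B-expressing HEK293 cells, binding read as anti-mouse-APC median fluorescence on live cells, relative to secondary-antibody-only wells.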
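Wherever fold-change over parental HEK293 is given: flow cytometry binding of hybridoma supernatants to HEK293 cells transiently expressing human, cyno or mouse TMEM106B, read as anti-mouse-APC median fluorescence, live cells only, 30 min on ice.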
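Wherever koff is given: antibodies amine-coupled on an MX-96 chip, antigen flowed at 500 nM top concentration in 5-fold serial dilutions, GST alone run as nonspecific-binding control, duplicate measurements.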
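Wherever kon is given: antibodies amine-coupled on an MX-96 chip, antigen flowed at 500 nM top concentration in 5-fold serial dilutions, GST alone run as nonspecific-binding control, duplicate measurements.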

B1: anti-TMEM106B antibody TM-50 (antibody, V domains shown)
VH: QVQLKESGPVLVAPSQSLSITCTVSGFSLTNYGVHWVRQPPGKGLEWLGVIWAGGNTNYNSALMSRLSISKDNSKSQVFLKMNSLQTDDTAMYYCAKEAKLLRSYAMDYWGQGTLVTVSA
VL: DVQMTQTTSSLSASLGDRVTISCRASQDINNYLYWYQQKPDGTVKLLIYYTSMLHSGVPSRFSGSGSGTDYSLTISNLEQEDIATYFCQQGSTLMYTFGGGTKLEIK
notes: mouse IgG from hybridoma
As for B1, the “fold over negative controls” value in [1] was above 2 fold. Moreover, the MFI came to 580 in assay [2]; 260 in assay [3]; 294 in assay [5]; 445 in assay [6]; 396 in assay [7]; 314 in assay [11]. Moreover, the MFI stood at 305 in assay [12], 257 in assay [14], 381 in assay [15] and 159 in assay [16]. For the same molecule, the binding result in assay [4] is reported as “no binding (tested: 55 nM antigen)”; in assay [13], “no binding”. Further, the entries for the “fold-change over parental HEK293” value in [8], in assay [9] and in [10] were 17.8 fold, 17.5 fold and 16 fold, respectively.

B2: anti-TMEM106B antibody TM-2 (antibody, V domains shown)
VH: HIQLVQSGPELKKPGETVKISCKASGYTFTEYPMHWVKQAPGKGFRWMGMIYTNTGEPTYAAEFKGRFAFSLETSASTGYLQINNLKNEDSATYFCVTAGYWGQGTLVTVSA
VL: QIVLTQSPAILSASPGEKVTMTCRASSSVSYIHWFLQKPGSSPKPWIYATSNLASGVPFRFIGSGSGTSYSLTISGVEAEDSATYYCQQWSSNPSTFGAGTKLELK
Broadly, the koff is the first-order rate constant of dissociation. Lower therefore signals slow dissociation. By kon is commonly meant the rate constant with which the complex forms. On to B2, for which the “fold over negative controls” value in assay [1] is above 2 fold. Also, the MFI in assay [2] was found to be 1890; in [3], 1410; in assay [5], 1440; in assay [6] it was 3360; in [7], 55500; in assay [11] it was 29300. The MFI was 4730 in [12], 2900 in assay [14], 1090 in assay [15] and 2530 in assay [16]. In addition, the Kd in assay [17] was 0.9 nM and 1.2 nM; in [18], around 1 nM. For the same molecule, the off-rate constant (koff) in assay [17] was 1.1e-05 s⁻¹ and 1e-05 s⁻¹. Further, the kon in [17] is 12000 M⁻¹ s⁻¹ and 8300 M⁻¹ s⁻¹. The “fold-change over parental HEK293” value in assay [8] was 32.3 fold; in assay [9], 17.5 fold; in assay [10] it was 9.84 fold. Besides, the binding result in [19] was “no binding”.

B3: anti-TMEM106B antibody TM-1 (antibody, V domains shown)
VH: QVQLQQSGAELVRPGTSVKVSCKASGYAFTNYLIEWVKQRPGQGLEWIGVINPGSGGTKYNEKLKGKATLTADKSSSTAYMQLSSLTSVDSAVYFCARRGYTIYDFYAMDYWGQGTSVTVSS
VL: DVLMTQTPLSLPVSLGDHASISCRSSQSIVYNNGNTYLEWYLQKPGQSPKLLIYKVSNRFSGVPDRFSGSGSGTDFTLKISRVEAEDLGVYYCFQVSHVPFTFGSGTKLEIK
Consider B3, for which the “fold over negative controls” value in [1] is above 2 fold. Also, the MFI in [2] was determined as 1460; in assay [3], 244; in [5] it was 655; in assay [6] it was 409; in [7] it was 2380; in assay [11] it was 2010. Besides, the MFI in [12] was found to be 1330; in [14], 253; in [15], 364; in [16], 253. The Kd in assay [17] was 14 nM and 13 nM; in assay [20], around 1 nM. In assay [17], the koff is 0.00057 s⁻¹ and 0.00069 s⁻¹. In addition, in assay [17], the on-rate (kon) was 40000 M⁻¹ s⁻¹ and 52000 M⁻¹ s⁻¹. Also, the “fold-change over parental HEK293” value was determined as 11.7 fold in assay [8], 4.61 fold in assay [9] and 4.72 fold in [10]. Further, in [19], the binding result was “no binding”.

B4: anti-TMEM106B antibody TM-19 (antibody, V domains shown)
VH: DVQLQQSGAELVRPGASVKLSCTASGFNIKDYYMYWVKQRPEQGLEWIGRIDPEDGDTENAPKFRGMATMTADTSSNTAYLQLNSLTSEDTAVYYCTTRIGNLYHVMDYWGHGTSVTVSS
VL: DVLMTQTPLSLPVSLGDQASISCRSSQSIVHSNGNTYLEWYLQKPGQAPKLLIDKVFNRFSGVPDRFSGSGSGTDFTLKISRVEAEDLGVYYCFQGSHVPFTFGSGTKLEIK
Take B4: in assay [1], the “fold over negative controls” value is above 2 fold. Further, the MFI in assay [2] worked out at 1820; in [3] it was 878; in assay [5], 3340; in assay [6] it was 4960; in assay [7] it was 79000; in [11], 66800. The MFI in assay [12] came out at 29800; in assay [14], 2140; in [15] it was 3640; in [16], 2430. In [20], the Kd was around 1 nM. The “fold-change over parental HEK293” value in [8] amounted to 34.9 fold; in assay [9], 36 fold; in assay [10], 13.8 fold. In addition, the binding result in [19] is “no binding”; in [21], “binds”.

B5: anti-TMEM106B antibody TM-22 (antibody, V domains shown)
VH: QVQLQQSGPELVKPGASVKISCKASGYRFTSYYIHWVKQRPGQGLEWIGWIYPGNGITNYNEKFKGKATLTADTSSSTAYMQLSSLTSEDSAVYYCASPYYGIRNCYFDVWGTGTTVTVSS
VL: DVLMTQTPLSLPVSLGDHASISCRSGQSIVHSNGNTYLEWYLQKPGQSPKLLIYKVSNRFSGVPDRFSGSGSGTDFTLKISRVEAEDLGIYYCFQGSHVPWTFGGGTKLEIK
Regarding B5, the MFI in assay [2] was found to be 1570; in assay [3] it was 313; in assay [5] it was 500; in [6] it was 478; in assay [7] it was 3580; in assay [11] it was 2100. Further, the MFI was found to be 833 in assay [12], 400 in [14], 399 in [15] and 408 in assay [16]. Moreover, the binding result is reported as “no binding” in assay [19] and “binds” in assay [21].

B6: anti-TMEM106B antibody TM-18 (antibody, V domains shown)
VH: EVRLQQSGPELVKPGASVKISCKTSGYTFTDYYMNWVKQSHGKSLEWIVNINPNNGDAFYNQKFKGKATLTVDKSSNTAYLDLRSLTSEDSAVYYCAREGQLRLRRVYAMDYWGQGTSVTVSS
VL: DIVLAQSPASLAVSLGQRATISCRASKSVSISVYTYVHWYQQKPGQPPKLLIYLASNLESGVPARFSGSGSGTDFTLNIHPVEEEDAATYYCQHSRELPYTFGGGTKLEIK
As to B6, in [1], the “fold over negative controls” value is above 2 fold. The MFI was 1490 in assay [2]; 874 in assay [3]; 1740 in assay [5]; 5190 in assay [6]; 71700 in assay [7]; 67300 in assay [11]. In addition, the MFI in assay [12] was determined as 10600; in assay [14], 1930; in assay [15], 2620; in assay [16], 1920. Moreover, the Kd in assay [17] is 7.3 nM and 11 nM; in [20], around 1 nM. Further, the off-rate constant (koff) in [17] was 7.2e-05 s⁻¹ and 9.4e-05 s⁻¹. The on-rate constant (kon) in assay [17] was 9900 M⁻¹ s⁻¹ and 8500 M⁻¹ s⁻¹. Moreover, the “fold-change over parental HEK293” value was found to be 38.8 fold in assay [8], 29 fold in assay [9] and 18.8 fold in [10]. The binding result in assay [19] is reported as “no binding”.

B7: anti-TMEM106B antibody TM-52 (antibody, V domains shown)
VH: QVQLQQPGAELVKPGASVKLSCKASGYTFTNYWMHWVKQRPGQGLDWIGNIDPSDSETHYNQKFKDKATLTVDKVSSTAYMQLSSLTSEDSAVYYCARRGYYGRSPFAYWGQGTLVTVSA
VL: ENVLTQSPAIMSASPGEKVTMTCSASSSVSYMHWYQQKSNTSPKLWIYDTSKLASGVPGRFSGSGSGNSYSLTISSAEAEDVATYYCFQGSGYPLTFGAGTKLELK
notes: mouse IgG from hybridoma
With B7, in assay [1], the “fold over negative controls” value was above 2 fold. The MFI is 987 in [2]; 341 in assay [3]; 451 in assay [5]; 443 in assay [6]; 7020 in [7]; 8200 in [11]. Moreover, the MFI in assay [12] turned out to be 1940; in [14], 210; in assay [15] it was 401; in assay [16], 227. In addition, the binding result is reported as “no binding (tested: 55 nM antigen)” in assay [4] and “no binding” in [13]. The “fold-change over parental HEK293” value in [8] was determined as 22.6 fold; in [9], 0.67 fold; in [10], 17.3 fold.

The values above are taken from US20230303681A1 (published 2023).
